Reference: publication doi:10.1101/2021.12.22.473891 (bioRxiv, 2021)

Target: recombinant human Top2a ΔC (1-1217), lacking the unstructured C-terminal domain (human, UniProt P11388 1-1217)
Assay: native gel or EMSA

Chain of recombinant human Top2a ΔC (1-1217), lacking the unstructured C-terminal domain (P11388 1-1217, stated change not applied): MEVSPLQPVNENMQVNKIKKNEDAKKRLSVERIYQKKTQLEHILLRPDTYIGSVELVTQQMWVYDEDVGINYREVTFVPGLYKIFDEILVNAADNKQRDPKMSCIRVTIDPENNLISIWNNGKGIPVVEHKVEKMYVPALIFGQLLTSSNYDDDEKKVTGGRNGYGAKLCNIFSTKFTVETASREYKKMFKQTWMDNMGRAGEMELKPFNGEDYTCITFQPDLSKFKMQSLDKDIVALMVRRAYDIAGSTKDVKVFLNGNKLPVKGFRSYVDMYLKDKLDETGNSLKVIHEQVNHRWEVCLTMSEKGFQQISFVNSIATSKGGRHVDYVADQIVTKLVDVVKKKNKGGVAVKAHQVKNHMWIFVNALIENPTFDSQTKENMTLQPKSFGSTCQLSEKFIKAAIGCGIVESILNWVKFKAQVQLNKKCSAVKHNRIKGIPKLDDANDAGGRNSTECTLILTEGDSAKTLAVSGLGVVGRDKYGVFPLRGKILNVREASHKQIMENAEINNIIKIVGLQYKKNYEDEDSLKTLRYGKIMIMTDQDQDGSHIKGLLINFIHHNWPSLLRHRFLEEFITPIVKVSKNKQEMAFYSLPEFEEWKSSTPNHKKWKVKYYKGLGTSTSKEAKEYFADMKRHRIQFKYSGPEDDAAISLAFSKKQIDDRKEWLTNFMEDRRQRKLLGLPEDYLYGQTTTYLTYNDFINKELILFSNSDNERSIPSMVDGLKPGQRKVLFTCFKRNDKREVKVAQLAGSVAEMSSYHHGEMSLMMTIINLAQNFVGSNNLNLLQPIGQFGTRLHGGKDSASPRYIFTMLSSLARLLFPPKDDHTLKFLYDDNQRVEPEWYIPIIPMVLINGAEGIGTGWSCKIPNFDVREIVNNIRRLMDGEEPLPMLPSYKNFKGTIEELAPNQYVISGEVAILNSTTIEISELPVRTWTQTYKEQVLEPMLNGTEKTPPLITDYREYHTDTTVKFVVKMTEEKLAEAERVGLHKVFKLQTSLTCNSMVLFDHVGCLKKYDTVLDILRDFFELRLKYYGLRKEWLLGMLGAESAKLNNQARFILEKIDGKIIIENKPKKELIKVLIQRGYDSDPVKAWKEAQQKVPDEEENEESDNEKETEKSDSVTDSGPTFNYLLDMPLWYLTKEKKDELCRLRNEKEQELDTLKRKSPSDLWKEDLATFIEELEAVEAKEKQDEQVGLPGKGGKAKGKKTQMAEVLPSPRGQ

binding result: binds
B1: human dock II domain, full-length variant (RPA1^1060-1155) with C-terminal His-MBP-tag (domain or fragment)
chain: ADPKKALHHFRAIKKWQSKHPNTLLRRGAFLSYSQKIQEAVKALKLESENRNGRSPGTQEMLRMWYELDEESRRKYQKKAAACPDPSLSVWRPDIY
